# Assay results from IntAct's records for PubMed 29426014.
# B1: Ubiquitin-protein ligase (Homo sapiens), Q05086-1 (parent)
# chain: MEKLHQCYWKSGEPQSDDIEASRMKRAAAKHLIERYYHQLTEGCGNEACTNEFCASCPTFLRMDNNAAAIKALELYKINAKLCDPHPSKKGASSAYLENSKGAPNNSCSEIKMNKKGARIDFKDVTYLTEEKVYEILELCREREDYSPLIRVIGRVFSSAEALVQSFRKVKQHTKEELKSLQAKDEDKDEDEKEKAACSAAAMEEDSEASSSRIGDSSQGDNNLQKLGPDDVSVDIDAIRRVYTRLLSNEKIETAFLNALVYLSPNVECDLTYHNVYSRDPNYLNLFIIVMENRNLHSPEYLEMALPLFCKAMSKLPLAAQGKLIRLWSKYNADQIRRMMETFQQLITYKVISNEFNSRNLVNDDDAIVAASKCLKMVYYANVVGGEVDTNHNEEDDEEPIPESSELTLQELLGEERRNKKGPRVDPLETELGVKTLDCRKPLIPFEEFINEPLNEVLEMDKDYTFFKVETENKFSFMTCPFILNAVTKNLGLYYDNRIRMYSERRITVLYSLVQGQQLNPYLRLKVRRDHIIDDALVRLEMIAMENPADLKKQLYVEFEGEQGVDEGGVSKEFFQLVVEEIFNPDIGMFTYDESTKLFWFNPSSFETEGQFTLIGIVLGLAIYNNCILDVHFPMVVYRKLMGKKGTFRDLGDSHPVLYQSLKDLLEYEGNVEDDMMITFQISQTDLFGNPMMYDLKENGDKIPITNENRKEFVNLYSDYILNKSVEKQFKAFRRGFHMVTNESPLKYLFRPEEIELLICGSRNLDFQALEETTEYDGGYTRDSVLIREFWEIVHSFTDEQKRLFLQFTTGTDRAPVGGLGKLKMIIAKNGPDTERLPTSHTCFNVLLLPEYSSKEKLKERLLKAITYAKGFGML
# B2: Ubiquitin-protein ligase (Homo sapiens), Q05086-2 (parent)
# chain: MKRAAAKHLIERYYHQLTEGCGNEACTNEFCASCPTFLRMDNNAAAIKALELYKINAKLCDPHPSKKGASSAYLENSKGAPNNSCSEIKMNKKGARIDFKDVTYLTEEKVYEILELCREREDYSPLIRVIGRVFSSAEALVQSFRKVKQHTKEELKSLQAKDEDKDEDEKEKAACSAAAMEEDSEASSSRIGDSSQGDNNLQKLGPDDVSVDIDAIRRVYTRLLSNEKIETAFLNALVYLSPNVECDLTYHNVYSRDPNYLNLFIIVMENRNLHSPEYLEMALPLFCKAMSKLPLAAQGKLIRLWSKYNADQIRRMMETFQQLITYKVISNEFNSRNLVNDDDAIVAASKCLKMVYYANVVGGEVDTNHNEEDDEEPIPESSELTLQELLGEERRNKKGPRVDPLETELGVKTLDCRKPLIPFEEFINEPLNEVLEMDKDYTFFKVETENKFSFMTCPFILNAVTKNLGLYYDNRIRMYSERRITVLYSLVQGQQLNPYLRLKVRRDHIIDDALVRLEMIAMENPADLKKQLYVEFEGEQGVDEGGVSKEFFQLVVEEIFNPDIGMFTYDESTKLFWFNPSSFETEGQFTLIGIVLGLAIYNNCILDVHFPMVVYRKLMGKKGTFRDLGDSHPVLYQSLKDLLEYEGNVEDDMMITFQISQTDLFGNPMMYDLKENGDKIPITNENRKEFVNLYSDYILNKSVEKQFKAFRRGFHMVTNESPLKYLFRPEEIELLICGSRNLDFQALEETTEYDGGYTRDSVLIREFWEIVHSFTDEQKRLFLQFTTGTDRAPVGGLGKLKMIIAKNGPDTERLPTSHTCFNVLLLPEYSSKEKLKERLLKAITYAKGFGML
# partner: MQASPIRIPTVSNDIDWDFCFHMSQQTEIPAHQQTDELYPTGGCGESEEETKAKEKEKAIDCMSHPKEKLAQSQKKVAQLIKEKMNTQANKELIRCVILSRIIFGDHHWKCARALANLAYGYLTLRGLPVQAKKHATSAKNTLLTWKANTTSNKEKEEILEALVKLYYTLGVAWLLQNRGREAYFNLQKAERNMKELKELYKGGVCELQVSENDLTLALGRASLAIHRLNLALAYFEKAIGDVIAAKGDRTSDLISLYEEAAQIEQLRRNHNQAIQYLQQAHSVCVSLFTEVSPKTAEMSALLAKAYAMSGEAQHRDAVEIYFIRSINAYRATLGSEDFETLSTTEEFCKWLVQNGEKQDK
# B3: Ubiquitin-protein ligase (Homo sapiens), Q05086-2 (parent)
# chain: B2 chain
# partner: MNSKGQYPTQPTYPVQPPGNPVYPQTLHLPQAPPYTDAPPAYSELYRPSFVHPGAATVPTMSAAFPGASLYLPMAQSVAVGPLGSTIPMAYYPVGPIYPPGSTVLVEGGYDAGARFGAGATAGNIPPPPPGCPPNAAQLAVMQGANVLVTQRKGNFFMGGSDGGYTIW
# B4: Ubiquitin-protein ligase (Homo sapiens), Q05086-1 (parent)
# chain: B1 chain
# partner: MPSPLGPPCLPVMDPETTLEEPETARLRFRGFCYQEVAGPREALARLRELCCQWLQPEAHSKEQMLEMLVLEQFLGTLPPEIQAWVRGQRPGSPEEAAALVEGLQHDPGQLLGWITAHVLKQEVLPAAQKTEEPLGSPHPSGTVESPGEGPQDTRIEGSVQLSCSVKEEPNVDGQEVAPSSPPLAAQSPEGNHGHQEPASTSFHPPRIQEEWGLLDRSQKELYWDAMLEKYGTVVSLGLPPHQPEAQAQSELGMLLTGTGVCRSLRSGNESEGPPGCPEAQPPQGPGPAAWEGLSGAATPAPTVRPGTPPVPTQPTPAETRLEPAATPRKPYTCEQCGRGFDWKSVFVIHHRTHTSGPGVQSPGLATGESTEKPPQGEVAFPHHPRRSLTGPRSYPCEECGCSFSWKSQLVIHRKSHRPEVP
# B5: Ubiquitin-protein ligase (Homo sapiens), Q05086-2 (parent)
# chain: B2 chain
# B6: Ubiquitin-protein ligase (Homo sapiens), Q05086-1 (parent)
# chain: B1 chain
# partner: B3 partner
# B7: Ubiquitin-protein ligase (Homo sapiens), Q05086-1 (parent)
# chain: B1 chain
# partner: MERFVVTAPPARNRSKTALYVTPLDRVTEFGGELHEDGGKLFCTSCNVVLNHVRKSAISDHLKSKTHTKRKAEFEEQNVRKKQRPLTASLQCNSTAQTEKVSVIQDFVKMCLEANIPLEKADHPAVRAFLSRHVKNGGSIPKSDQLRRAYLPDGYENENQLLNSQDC
# Variants of: B1
# Details: with ZNF250, P15622-3
row,Variant,effect of a mutation on the interaction
1,C843A,causing an interaction

# Variants of: B1
# Details: with PAX6, P26367-1
# Target sequence in this assay (P26367 whole entry): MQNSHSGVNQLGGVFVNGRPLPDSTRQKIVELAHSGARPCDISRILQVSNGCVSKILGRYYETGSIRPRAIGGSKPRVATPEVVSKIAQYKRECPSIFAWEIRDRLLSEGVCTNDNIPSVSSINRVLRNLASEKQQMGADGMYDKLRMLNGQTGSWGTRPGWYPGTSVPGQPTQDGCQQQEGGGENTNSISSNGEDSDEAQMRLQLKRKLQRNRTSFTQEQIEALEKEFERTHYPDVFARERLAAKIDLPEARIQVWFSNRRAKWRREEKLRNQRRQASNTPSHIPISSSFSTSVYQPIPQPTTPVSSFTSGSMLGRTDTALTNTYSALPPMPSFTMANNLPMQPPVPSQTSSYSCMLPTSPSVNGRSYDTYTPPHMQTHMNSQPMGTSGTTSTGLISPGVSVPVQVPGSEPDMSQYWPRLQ
row,Variant,effect of a mutation on the interaction
1,C843A,causing an interaction

# Variants of: B1
# Details: with magac_human MAGEA12, P43365
# Target sequence in this assay (P43365 whole entry): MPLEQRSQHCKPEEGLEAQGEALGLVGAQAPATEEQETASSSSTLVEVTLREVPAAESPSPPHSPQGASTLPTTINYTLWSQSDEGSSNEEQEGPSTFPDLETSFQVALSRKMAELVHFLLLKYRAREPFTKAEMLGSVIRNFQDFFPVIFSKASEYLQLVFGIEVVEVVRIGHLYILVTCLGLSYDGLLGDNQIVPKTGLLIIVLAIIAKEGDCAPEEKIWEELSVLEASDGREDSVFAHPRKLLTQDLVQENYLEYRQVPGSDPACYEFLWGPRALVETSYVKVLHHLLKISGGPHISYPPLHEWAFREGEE
row,Variant,effect of a mutation on the interaction
1,C843A,causing an interaction

# Variants of: B1
# Details: with PSMD4, P55036-1
# Target sequence in this assay (P55036 whole entry): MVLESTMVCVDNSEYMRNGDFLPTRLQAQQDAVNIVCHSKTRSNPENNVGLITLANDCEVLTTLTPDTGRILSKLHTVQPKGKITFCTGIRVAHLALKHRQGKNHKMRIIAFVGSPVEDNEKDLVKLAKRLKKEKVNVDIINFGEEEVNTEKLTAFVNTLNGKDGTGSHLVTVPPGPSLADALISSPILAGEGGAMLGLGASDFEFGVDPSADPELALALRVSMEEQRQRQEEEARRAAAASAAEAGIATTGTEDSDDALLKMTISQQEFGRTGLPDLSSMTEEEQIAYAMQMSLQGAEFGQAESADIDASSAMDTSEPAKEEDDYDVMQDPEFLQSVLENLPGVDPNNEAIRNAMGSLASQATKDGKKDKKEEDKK
row,Variant,effect of a mutation on the interaction
1,C843A,with no effect

# Variants of: B1
# Details: with PAX5, Q02548-1
# Target sequence in this assay (Q02548 whole entry): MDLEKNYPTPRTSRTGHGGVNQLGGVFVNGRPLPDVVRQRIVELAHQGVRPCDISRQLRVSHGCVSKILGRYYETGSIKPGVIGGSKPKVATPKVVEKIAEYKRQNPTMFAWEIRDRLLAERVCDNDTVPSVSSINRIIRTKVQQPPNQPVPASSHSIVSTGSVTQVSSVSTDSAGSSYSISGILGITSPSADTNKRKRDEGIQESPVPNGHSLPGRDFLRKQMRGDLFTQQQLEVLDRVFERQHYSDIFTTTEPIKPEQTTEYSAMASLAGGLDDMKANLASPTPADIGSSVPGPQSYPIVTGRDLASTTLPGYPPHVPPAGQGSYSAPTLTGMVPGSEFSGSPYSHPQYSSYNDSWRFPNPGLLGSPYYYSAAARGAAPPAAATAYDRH
row,Variant,effect of a mutation on the interaction
1,C843A,causing an interaction

# Variants of: B1
# Details: with PTCD3, Q96EY7-1
row,Variant,effect of a mutation on the interaction
1,C843A,with no effect

# Variants of: B1
# Details: with ubql2_human UBQLN2, Q9UHD9
# Target sequence in this assay (Q9UHD9 whole entry): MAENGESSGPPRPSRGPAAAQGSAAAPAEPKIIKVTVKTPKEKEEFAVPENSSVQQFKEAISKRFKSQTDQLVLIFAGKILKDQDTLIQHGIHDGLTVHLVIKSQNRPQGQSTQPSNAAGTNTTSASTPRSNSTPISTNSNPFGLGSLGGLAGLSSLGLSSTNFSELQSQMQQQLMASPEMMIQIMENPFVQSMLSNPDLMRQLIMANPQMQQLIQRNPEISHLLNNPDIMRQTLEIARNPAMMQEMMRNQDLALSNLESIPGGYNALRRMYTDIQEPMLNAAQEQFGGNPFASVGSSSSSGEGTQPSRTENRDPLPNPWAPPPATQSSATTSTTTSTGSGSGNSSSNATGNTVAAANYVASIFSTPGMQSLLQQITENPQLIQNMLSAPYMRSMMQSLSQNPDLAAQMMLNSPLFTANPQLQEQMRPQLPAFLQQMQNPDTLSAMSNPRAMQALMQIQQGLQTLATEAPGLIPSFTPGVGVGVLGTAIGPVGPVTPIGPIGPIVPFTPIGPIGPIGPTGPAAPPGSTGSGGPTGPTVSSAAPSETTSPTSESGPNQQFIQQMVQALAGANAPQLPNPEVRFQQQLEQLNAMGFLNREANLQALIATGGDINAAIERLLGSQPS
row,Variant,effect of a mutation on the interaction
1,C843A,with no effect

# Variants of: B1
# Details: with UBQLN1, Q9UMX0-1
# Target sequence in this assay (Q9UMX0 whole entry): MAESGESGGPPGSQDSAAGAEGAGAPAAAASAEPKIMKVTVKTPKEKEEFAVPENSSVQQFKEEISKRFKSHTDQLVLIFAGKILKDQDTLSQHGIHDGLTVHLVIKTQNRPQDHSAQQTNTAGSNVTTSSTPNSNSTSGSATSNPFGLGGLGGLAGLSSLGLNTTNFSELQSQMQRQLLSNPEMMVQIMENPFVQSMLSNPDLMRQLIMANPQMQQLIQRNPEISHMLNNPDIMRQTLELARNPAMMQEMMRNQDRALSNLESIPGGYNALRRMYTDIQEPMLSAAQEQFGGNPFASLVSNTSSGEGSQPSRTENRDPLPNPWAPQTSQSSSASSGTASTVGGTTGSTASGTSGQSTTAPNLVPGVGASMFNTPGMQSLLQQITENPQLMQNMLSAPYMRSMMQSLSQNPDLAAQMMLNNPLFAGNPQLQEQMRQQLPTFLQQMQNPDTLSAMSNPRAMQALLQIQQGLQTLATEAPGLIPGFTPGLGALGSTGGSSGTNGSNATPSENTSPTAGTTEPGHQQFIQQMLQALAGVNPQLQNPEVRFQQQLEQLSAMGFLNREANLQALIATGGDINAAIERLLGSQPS
row,Variant,effect of a mutation on the interaction
1,C843A,with no effect

# Variants of: B2
# Details: with TTC23L
row,Variant,effect of a mutation on the interaction
1,C820A,causing an interaction

# Variants of: B3
# Details: with DAZAP2, Q15038-1
row,Variant,effect of a mutation on the interaction
1,C820A,causing an interaction

# Variants of: B4
# Details: with ZNF446, Q9NWS9-2
row,Variant,effect of a mutation on the interaction
1,C843A,causing an interaction

# Variants of: B5
# Details: with ZNF250, P15622-3
# Target sequence in this assay (P15622 other isoform, or with tags, fused parts or gaps): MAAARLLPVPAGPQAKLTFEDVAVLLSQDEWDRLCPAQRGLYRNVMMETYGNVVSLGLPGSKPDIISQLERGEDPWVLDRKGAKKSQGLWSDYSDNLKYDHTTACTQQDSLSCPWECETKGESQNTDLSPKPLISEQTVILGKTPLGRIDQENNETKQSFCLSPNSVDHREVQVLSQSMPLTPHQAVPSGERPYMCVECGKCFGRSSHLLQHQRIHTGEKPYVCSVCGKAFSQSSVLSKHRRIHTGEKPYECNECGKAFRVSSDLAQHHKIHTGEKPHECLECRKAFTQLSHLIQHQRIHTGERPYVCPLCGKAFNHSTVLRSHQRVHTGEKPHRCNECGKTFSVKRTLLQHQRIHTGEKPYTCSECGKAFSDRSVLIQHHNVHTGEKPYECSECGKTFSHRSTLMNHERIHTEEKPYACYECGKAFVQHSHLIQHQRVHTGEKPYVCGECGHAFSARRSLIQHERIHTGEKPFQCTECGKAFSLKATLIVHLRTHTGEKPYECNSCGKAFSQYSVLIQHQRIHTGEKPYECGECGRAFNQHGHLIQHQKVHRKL
row,Variant,effect of a mutation on the interaction
1,C820A,causing an interaction

# Variants of: B5
# Details: with PAX6, P26367-1
# Target sequence in this assay (P26367 whole entry): as the sequence (P26367 whole entry) above
row,Variant,effect of a mutation on the interaction
1,C820A,causing an interaction

# Variants of: B5
# Details: with magac_human MAGEA12, P43365
# Target sequence in this assay (P43365 whole entry): as the sequence (P43365 whole entry) above
row,Variant,effect of a mutation on the interaction
1,C820A,with no effect

# Variants of: B5
# Details: with PSMD4, P55036-1
# Target sequence in this assay (P55036 whole entry): as the sequence (P55036 whole entry) above
row,Variant,effect of a mutation on the interaction
1,C820A,with no effect

# Variants of: B5
# Details: with PAX5, Q02548-1
# Target sequence in this assay (Q02548 whole entry): as the sequence (Q02548 whole entry) above
row,Variant,effect of a mutation on the interaction
1,C820A,causing an interaction

# Variants of: B5
# Details: with PTCD3, Q96EY7-1
row,Variant,effect of a mutation on the interaction
1,C820A,with no effect

# Variants of: B5
# Details: with ubql2_human UBQLN2, Q9UHD9
# Target sequence in this assay (Q9UHD9 whole entry): as the sequence (Q9UHD9 whole entry) above
row,Variant,effect of a mutation on the interaction
1,C820A,with no effect

# Variants of: B5
# Details: with UBQLN1, Q9UMX0-1
# Target sequence in this assay (Q9UMX0 whole entry): as the sequence (Q9UMX0 whole entry) above
row,Variant,effect of a mutation on the interaction
1,C820A,with no effect

# Variants of: B5
# Details: with herc2_human HERC2, O95714
row,Variant,effect of a mutation on the interaction
1,C820A,causing an interaction

# Variants of: B6
# Details: with DAZAP2, Q15038-1
row,Variant,effect of a mutation on the interaction
1,C843A,causing an interaction

# Variants of: B7
# Details: with cgbp1_human CGGBP1, Q9UFW8
row,Variant,effect of a mutation on the interaction
1,C843A,causing an interaction
